Laboratory results: publication PMC12053377

Target: SARS-CoV-2 S HexaPro (Spike 6P) ectodomain trimer (SARS-CoV-2 | not stated) (UniProt P0DTC2)
Experiment: cryo-EM structure

Q: “SARS-CoV-2 S HexaPro (Spike 6P) ectodomain trimer (from UniProt P0DTC2 14-1208) (domain or fragment)” was tested. Which stoichiometry N did it give?
A: 3 protomers
